Results reported in publication PMC9779004, “Structural, Thermodynamic and Enzymatic Characterization of N,N-Diacetylchitobiose Deacetylase from Pyrococcus chitonophagus” (International Journal of Molecular Sciences, 2022).

What was measured:
[1] = biological target: T1, Pch-Dac (N,N-diacetylchitobiose deacetylase) (Thermococcus chitonophagus, UniProt A0A160VQZ8); experiment: ITC total heat (Happ) and 1H NMR; format: biochemical; conditions: ITC pH 6.5, 75 °C; NMR HEPES pH 7.5; non-reducing-end deacetylation
T1 construct: gene CHITON_0574; full gene in pET151D-TOPO, N-terminal 6xHis-TEV tag cut, expressed in E. coli BL21-Magic
T1 sequence (A0A160VQZ8 1-267): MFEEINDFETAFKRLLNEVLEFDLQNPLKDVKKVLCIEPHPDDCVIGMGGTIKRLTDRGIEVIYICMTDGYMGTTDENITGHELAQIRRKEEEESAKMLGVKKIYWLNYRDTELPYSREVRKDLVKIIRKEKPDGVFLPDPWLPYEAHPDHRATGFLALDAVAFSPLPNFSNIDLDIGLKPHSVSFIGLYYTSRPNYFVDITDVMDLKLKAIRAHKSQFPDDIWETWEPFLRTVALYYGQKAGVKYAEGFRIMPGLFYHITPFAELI

[2] = biological target: N,N-diacetylchitobiose deacetylase from Pyrococcus chitonophagus (Pyrococcus chitonophagus DSM 10152); experiment: SEC-SAXS; stock solution 4.7 mg/mL, Superdex 200 Increase 5/150 GL, injected at 4 °C, 0.35 mL/min; main peak fitted with the crystallographic hexamer, chi^2 = 1.2
[3] = biological target: N,N-diacetylchitobiose deacetylase from Pyrococcus chitonophagus (Pyrococcus chitonophagus DSM 10152); experiment: crystal structure; three crystal forms: P2(1) with (GlcNAc)2 (two hexamers in the asymmetric unit), P3(2)21 unliganded (half a hexamer, other half by the crystallographic two-fold axis), P2(1)2(1)2(1) (one hexamer); data at 100 K
[4] = biological target: N,N-diacetylchitobiose deacetylase from Pyrococcus chitonophagus (Pyrococcus chitonophagus DSM 10152); experiment: SAXS; batch mode, dilution series 0.2-3.48 mg/mL in Buffer A (20 mM TRIS pH 7.4, 200 mM NaCl), room temperature; curves fitted with the crystallographic hexamer and a 'dodecameric' model (CRYSOL, OLIGOMER)

Row | Molecule | ITC total heat (Happ) and 1H NMR [1] | stoichiometry N [2] | stoichiometry N [3] | percent of the scattering accounted for by the hexameric model [4] [%] | stoichiometry N [4]
1 | CC(=O)N[C@H]1[C@H](O[C@H]2[C@H](O)[C@@H](N)C(O)O[C@@H]2CO)O[C@H](CO)[C@@H](O)[C@@H]1O (stereo partly drawn) [GlcNAc-GlcN, 1,4-β-D-acetyl glucosaminyl-D-N-glucosamine] | Reaction was observed only in the case of GlcNAc-GlcN |  |  |  | 
2 | N,N-diacetylchitobiose deacetylase from Pyrococcus chitonophagus (enzyme) |  | 6 | 6 | 84 to 87 | 6
